Test results from paper PMC7660905.

Assays:
AM14 = assay: SPR; conditions: read off a plot; for Kd: parent: est. 100 pM; for ratio to parent: parent: est. 1.0
[1] = target: D25 (human monoclonal antibody to site Ø of PreF); assay: SPR; conditions: read off a plot; for Kd: parent: est. 54 pM; for ratio to parent: parent: est. 1.0
[2] = target: D25 IgG (human monoclonal antibody to site Ø of PreF) (human); assay: SPR; Biacore T200, single cycle kinetics, IgG captured ([…]; 25 °C, HBS-EP; 1:1 binding model
[3] = target: D25 IgG (human monoclonal antibody to site Ø of PreF) (human); assay: SPR; Biacore T200, single cycle kinetics, IgG captured (100-200 RU) by human Fc binder on a CM5 chip; PreF injected at 0-20 nM, 120 s association, 600 s dissociation; 25 °C, HBS-EP; 1:1 binding model

Row | Substance | Kd (AM14) | ratio to parent (AM14) | Kd [1] | ratio to parent [1] | Kd [2] | Kd [3] | koff [3] | kon [3]
1 | DS-Cav1 (stabilized prefusion RSV glycoprotein F) (from UniProt P03420) D200N | 0.12 nM | 1.2 | 0.022 nM | 0.4 | – | – | – | –
2 | DS-Cav1 (stabilized prefusion RSV glycoprotein F) (from UniProt P03420) N276S | 0.078 nM | 0.75 | 0.021 nM | 0.4 | – | – | – | –
3 | DS-Cav1 (stabilized prefusion RSV glycoprotein F) (from UniProt P03420) N63A; K65A | 0.083 nM | – | 0.016 nM | 0.3 | – | – | – | –
4 | DS-Cav1 (prefusion-stabilized RSV fusion glycoprotein F), trimeric PreF (from UniProt P03420) (complex) | – | – | – | – | 0.0534 nM | – | – | –
5 | DS-Cav1 (stabilized prefusion RSV glycoprotein F) (from UniProt P03420) D200N; N276S | 0.094 nM | 0.95 | 0.057 nM | 1 | – | – | – | –
6 | DS-Cav1 (stabilized prefusion RSV glycoprotein F) (from UniProt P03420) K65A | 0.088 nM | – | 0.042 nM | 0.75 | – | – | – | –
7 | monomeric form of PreF | – | – | – | – | – | 0.0977 nM | 3.75e-05 s⁻¹ | 384000 M⁻¹ s⁻¹
8 | DS-Cav1 (stabilized prefusion RSV glycoprotein F) (from UniProt P03420) N63A | 0.094 nM | 0.95 | 0.025 nM | 0.45 | – | – | – | –
